The values that follow come from patent US20080014203A1 (published 2008).

Substitutions are numbered along the chain they refer to.

Experiment [1] addresses IGF-I receptor (IGF-IR) on tumor cells (HT29, NCI H322M) or on 3T3 cells transfected with IGF-IR (human) (UniProt P08069). Kind of experiment: cell-based or functional assay.
For experiment [2], the target named is T1, IGF-I receptor (IGF-IR) on tumor cells (HT29, NCI H322M) or on 3T3 cells transfected with IGF-IR (human, UniProt P08069 31-736; P08069 741-1367, Natural receptor on cells: glycosylated, disulfide-linked alpha2-beta2 heterotetramer. One alpha and one beta chain are given.).
T1 construct: also called IGF-1R
Kind of experiment: displacement of I^125-labeled IGF-I from human tumor cells expressing IGF-IR (HT29, NCI H322M), scintillation counting.

Experiment [3] addresses T2, IGF-IR extracellular domain (human, UniProt P08069 31-935).
T2 construct: extracellular domain; also called IGF-1R; insulin-like growth factor I receptor
The experiment can be described thus: SPR (BIACORE 3000); antibody captured by anti-human Fcγ antibody, IGF-IR extracellular domain in solution. On the technique in general: SPR reads the build-up and loss of mass on a sensor chip optically.

In experiment [1], αIR3 (antibody) showed an Akt/PKB phosphorylation without IGF-I ligand (Western blot) of more than 5 nM.

B1: <IGF-1R>HUMAB Clone 18 (antibody 18) (antibody, V domains shown)
VH: QVELVESGGGVVQPGRSQRLSCAASGFTFSSYGMHWVRQAPGKGLEWVAIIWFDGSSTYYADSVRGRFTISRDNSKNTLYLQMNSLRAEDTAVYFCARELGRRYFDLWGRGTLVSVSS
VL: EIVLTQSPATLSLSPGERATLSCRASQSVSSYLAWYQQKPGQAPRLLIYDASKRATGIPARFSGSGSGTDFTLTISSLEPEDFAVYYCQQRSKWPPWTFGQGTKVESK
For B1, the IC50 in experiment [2] came to 0.3 nM. Besides, in experiment [3], the affinity, expressed as Kd, was 0.000695 nM; the koff was determined as 1.03e-07 s⁻¹; the on-rate (kon) was 149000 M⁻¹ s⁻¹.

B2: <IGF-1R>HUMAB Clone 22 (antibody 22) (antibody, V domains shown)
VH: VQLVESGGGVVQPGRSLRLSCAASGFTFSSYGMHWVRQAPGKGLEWMAIIWFDGSSKYYGDSVKGRFTISRDNSKNTLYLQMNSLRADDTAVYYCARELGRRYFDLWGRGTLVTVSS
VL: B1 VL with K53N, S107I
With B2, in experiment [3], the affinity, expressed as Kd, was 0.656 nM; the koff was 9.64e-05 s⁻¹; the on-rate (kon) was 147000 M⁻¹ s⁻¹.

In general, IC50 refers to the concentration that inhibits the measured activity by half. A higher IC50 goes with a need for much substance. In general, Kd refers to the equilibrium constant for the complex coming apart. A low value points to tighter binding. One may read the koff as a measure of how fast the partners let go of each other. High values mean a short-lived complex, low ones a long-lived complex. For orientation: kon means the rate constant with which the complex forms. Read a low kon as slow association.
